Measured values taken from paper PMC12356879 (Nature Communications, 2025).
Values belong to the molecule of their own block, whether it stands above or below them.

Tests used:
[1] = target: post-translational lamin construct with a single N-terminal cysteine (pJS81) (human) (UniProt P02545); assay: SEC
optical tweezers = target: the molecule itself; assay: optical tweezers

stoichiometry N [1]: 2
Molecule: post-translational lamin construct with a single N-terminal cysteine (pJS81) (from UniProt P02545 31-311) (domain or fragment)

B1: LMNA_(31-123) ribosome-bound nascent chain (domain or fragment)
chain: EKEDLQELNDRLAVYIDRVRSLETENAGLRLRITESEEVVSREVSGIKAAYEAELGDARKTLDSVAKERARLQLELSKVREEFKELKARNTKK
mean rupture force (optical tweezers): 7 pN

B2: LMNA_(31-311) ribosome-bound nascent chain (domain or fragment)
chain: EKEDLQELNDRLAVYIDRVRSLETENAGLRLRITESEEVVSREVSGIKAAYEAELGDARKTLDSVAKERARLQLELSKVREEFKELKARNTKKEGDLIAAQARLKDLEALLNSKEAALSTALSEKRTLEGELHDLRGQVAKLEAALGEAKKQLQDEMLRRVDAENRLQTMKEELDFQKNIYSEELRETKRRHETRLVEIDNGKQREFESRLADALQELRAQHEDQVEQYKKELEKTYSAKLDNARQSAERNSNLVGAAHEELQQSRIRIDSLSAQLSQLQK
mean rupture force (optical tweezers): 14 pN
